The target of the test is HLA-A*02:01 (Homo sapiens, UniProt P04439, D140Y/D185E/D98H/E176V/E277Q/G131W/G231S/I119V/I121R/I166T/I218V/L300P/L318F/N151K/N90K/P208A/P217A/Q86G/Q94H/R138H/R169H/T345S). As to the kind of experiment: MHC binding assay (UV-ligand exchange, β2m ELISA, peptide exchange yield). Particulars: binding to HLA-A*02:01. From the text: Candidate peptides for T cell based therapies according to the present invention were further tested for their MHC binding capacity (affinity). The individual peptide-MHC complexes were produced by UV-ligand exchange, where a UV-sensitive peptide is cleaved upon UV-irradiation, and exchanged with the peptide of interest as analyzed. Only peptide candidates that can effectively bind and stabilize the peptide-receptive MHC molecules prevent dissociation of the MHC complexes. To determine the yield of the exchange reaction, an ELISA was performed based on the detection of the light chain (β2m) of stabilized MHC complexes. The assay was performed as generally described in Rodenko et al. (Rodenko et al., 2006).
96 well MAXISorp plates (NUNC) were coated over night with 2 ug/ml streptavidin in PBS at room temperature, washed 4× and blocked for 1 h at 37° C. in 2% BSA containing blocking buffer. Refolded HLA-A*02:01/MLA-001 monomers served as standards, covering the range of 15-500 ng/ml. Peptide-MHC monomers of the UV-exchange reaction were diluted 100 fold in blocking buffer. Samples were incubated for 1 h at 37° C., washed four times, incubated with 2 ug/ml HRP conjugated anti-β2m for 1 h at 37° C., washed again and detected with TMB solution that is stopped with […]. Absorption was measured at 450 nm. Candidate peptides that show a high exchange yield (preferably higher than 50%, most preferred higher than 75%) are generally preferred for a generation and production of antibodies or fragments thereof, and/or T cell receptors or fragments thereof, as they show sufficient avidity to the MHC molecules and prevent dissociation of the MHC complexes.
Table 11: MHC class I binding scores. Binding of HLA-class I restricted peptides to HLA-A*02:01 was ranged by peptide exchange yield: ≥10%=+; ≥20%=++; ≥50=+++; ≥75%=++++
(In an ELISA, binding on a coated surface is turned into a signal by an enzyme label.)
As to “130 (LLVLIPVYL; listed as Homo sapiens) [compound 130]”, the “Peptide Exchange (MHC class I binding score, peptide exchange yield)” value (shortened to “Peptide Exchange”) is ““+” (>10% = +)”.
Turning to “131 (LQALEVLKI; listed as Homo sapiens) [compound 131]”, the “Peptide Exchange” value is given as ““+” (>10% = +)”.
As for “132 (LVYEAIIMV; listed as Homo sapiens) [compound 132]”, the “Peptide Exchange” value was ““+++” (>50 = +++)”.
With “133 (YLLSGDISEA; listed as Homo sapiens) [compound 133]” the entry was ““+++” (>50 = +++)”; with “134 (MLLEHGITLV; listed as Homo sapiens) [compound 134]”, ““++++” (>75% = ++++)”.
For “135 (MTAGFSTIAGSV; listed as Homo sapiens) [compound 135]”, the “Peptide Exchange” value is listed as ““+” (>10% = +)”.
“136 (NLDKLWTLV; listed as Homo sapiens) [compound 136]”: the “Peptide Exchange” value is listed as ““++” (>20% = ++)”.
Turning to “137 (NLIKTVIKL; listed as Homo sapiens) [compound 137]”, the “Peptide Exchange” value is on record as ““+++” (>50 = +++)”.
With “138 (NLLDIDAPVTV; listed as Homo sapiens) [compound 138]”, the “Peptide Exchange” value is given as ““+++” (>50 = +++)”.
“139 (NLTDVVEKL; listed as Homo sapiens) [compound 139]”: the “Peptide Exchange” value was ““+++” (>50 = +++)”.
For “140 (QIAELPATSV; listed as Homo sapiens) [compound 140]”, the “Peptide Exchange” value is reported as ““+++” (>50 = +++)”.
As to “141 (QILSEIVEA; listed as Homo sapiens) [compound 141]”, the “Peptide Exchange” value is ““++” (>20% = ++)”.
For “142 (QLDEPAPQV; listed as Homo sapiens) [compound 142]”, the “Peptide Exchange” value is listed as ““++” (>20% = ++)”.
As for “143 (QLLDTYFTL; listed as Homo sapiens) [compound 143]”, the “Peptide Exchange” value is reported as ““+++” (>50 = +++)”.
In the case of “145 (SALDTITTV; listed as Homo sapiens) [compound 145]”, the “Peptide Exchange” value is recorded as ““+++” (>50 = +++)”.
On to “146 (SIIEGPIIKL; listed as Homo sapiens) [compound 146]”, for which the “Peptide Exchange” value is ““+++” (>50 = +++)”.
On to “147 (SILETVATL; listed as Homo sapiens) [compound 147]”, for which the “Peptide Exchange” value is given as ““+++” (>50 = +++)”.
With “148 (SIVASLITV; listed as Homo sapiens) [compound 148]”, the “Peptide Exchange” value was ““+++” (>50 = +++)”.
In the case of “149 (SLDNGGYYI; listed as Homo sapiens) [compound 149]”, the “Peptide Exchange” value is recorded as ““+++” (>50 = +++)”.
For the substance “150 (SLFDQPLSII; listed as Homo sapiens) [compound 150]”, the “Peptide Exchange” value is ““+++” (>50 = +++)”.
Turning to “151 (SLFDSAYGA; listed as Homo sapiens) [compound 151]”, the “Peptide Exchange” value is ““+++” (>50 = +++)”.
Consider “152 (SLIRILQTI; listed as Homo sapiens) [compound 152]”, for which the “Peptide Exchange” value is listed as ““+++” (>50 = +++)”.
“153 (SLLAELHVL; listed as Homo sapiens) [compound 153]”: the “Peptide Exchange” value was ““+++” (>50 = +++)”.
In the case of “155 (SLMLEVPAL; listed as Homo sapiens) [compound 155]” it was ““+++” (>50 = +++)”; in that of “156 (SLNIGDVQL; listed as Homo sapiens) [compound 156]”, ““+++” (>50 = +++)”.
Take “157 (SLNIRDFTM; listed as Homo sapiens) [compound 157]”: the “Peptide Exchange” value was ““+++” (>50 = +++)”.
With “158 (SLPEAPLDV; listed as Homo sapiens) [compound 158]”, the “Peptide Exchange” value is ““+++” (>50 = +++)”.
Regarding “159 (SLQEEKLIYV; listed as Homo sapiens) [compound 159]”, the “Peptide Exchange” value is ““+++” (>50 = +++)”.
With “160 (SLSFLVPSL; listed as Homo sapiens) [compound 160]” the entry was ““+++” (>50 = +++)”; with “161 (SMDDGMINV; listed as Homo sapiens) [compound 161]”, ““+++” (>50 = +++)”; with “162 (SMKDDLENV; listed as Homo sapiens) [compound 162]”, ““++” (>20% = ++)”.
Take “163 (SQLDISEPYKV; listed as Homo sapiens) [compound 163]”: the “Peptide Exchange” value is ““+++” (>50 = +++)”.
As to “164 (SVHKGFAFV; listed as Homo sapiens) [compound 164]”, the “Peptide Exchange” value is ““+++” (>50 = +++)”.
Regarding “165 (TLDDDLDTV; listed as Homo sapiens) [compound 165]”, the “Peptide Exchange” value is ““++” (>20% = ++)”.
With “166 (TLDPNQVSL; listed as Homo sapiens) [compound 166]” the entry was ““++” (>20% = ++)”.
“167 (TLDTSKLYV; listed as Homo sapiens) [compound 167]”: the “Peptide Exchange” value is ““+++” (>50 = +++)”.
Take “168 (YLLDQSFVM; listed as Homo sapiens) [compound 168]”: the “Peptide Exchange” value is on record as ““++++” (>75% = ++++)”.
Regarding “169 (TLLLGLTEV; listed as Homo sapiens) [compound 169]”, the “Peptide Exchange” value is ““+++” (>50 = +++)”.
For “170 (TLTFRVETV; listed as Homo sapiens) [compound 170]”, the “Peptide Exchange” value is given as ““+++” (>50 = +++)”.
Turning to “171 (TLVPPAALISI; listed as Homo sapiens) [compound 171]”, the “Peptide Exchange” value is listed as ““+++” (>50 = +++)”.
In the case of “172 (TLYDMLASI; listed as Homo sapiens) [compound 172]”, the “Peptide Exchange” value is listed as ““+++” (>50 = +++)”.
Take “173 (TVIENIHTI; listed as Homo sapiens) [compound 173]”: the “Peptide Exchange” value was ““++” (>20% = ++)”.
“174 (VLAELPIIVV; listed as Homo sapiens) [compound 174]”: the “Peptide Exchange” value is reported as ““+++” (>50 = +++)”.
Regarding “175 (FTVPRVVAV; listed as Homo sapiens) [compound 175]”, the “Peptide Exchange” value is reported as ““+++” (>50 = +++)”.
With “176 (VLAEQNIIPSA; listed as Homo sapiens) [compound 176]”, the “Peptide Exchange” value was ““+++” (>50 = +++)”.
With “177 (VLDDRELLL; listed as Homo sapiens) [compound 177]” the entry was ““+++” (>50 = +++)”; with “178 (VLFFNVQEV; listed as Homo sapiens) [compound 178]”, ““+++” (>50 = +++)”.
With “179 (VLLGLEMTL; listed as Homo sapiens) [compound 179]” the entry was ““+++” (>50 = +++)”; with “180 (LLKDGPEIGL; listed as Homo sapiens) [compound 180]”, ““++” (>20% = ++)”.
Consider “181 (VLLSIPFVSV; listed as Homo sapiens) [compound 181]”, for which the “Peptide Exchange” value is ““+++” (>50 = +++)”.
Take “182 (VLLSVPGPPV; listed as Homo sapiens) [compound 182]”: the “Peptide Exchange” value is listed as ““+++” (>50 = +++)”.
In the case of “183 (VLMPTVYQQGV; listed as Homo sapiens) [compound 183]” it was ““+++” (>50 = +++)”; in that of “184 (VLSHNLYTV; listed as Homo sapiens) [compound 184]”, ““+++” (>50 = +++)”; in that of “185 (VMDDQRDLI; listed as Homo sapiens) [compound 185]”, ““++” (>20% = ++)”.
For the substance “186 (VMDPTKILI; listed as Homo sapiens) [compound 186]”, the “Peptide Exchange” value is reported as ““++++” (>75% = ++++)”.
